Values belong to the substance of their own block, whether it stands above or below them.
Experiments:
[1] = target: full-length Mic19 (Chaetomium thermophilum) (Chaetomium thermophilum); assay: SEC; gel filtration of purified Mic19 and its C132S/C143S mutant; the dimers were sensitive to reducing agents in SDS–PAGE
[2] = target: Mic60sol (Chaetomium thermophilum Mic60, residues 208–691) (Chaetomium thermophilum); assay: ITC; about 450 μM Mic19 construct in the syringe titrated into about 40 μM Mic60 construct in the cell; 10 °C; 20 mM HEPES/NaOH pH 7.5, 150 mM NaCl; untagged proteins
[3] = target: Mic60solΔMito (Chaetomium thermophilum Mic60, residues 208–608) (Chaetomium thermophilum); assay: native gel or EMSA; blue native (BN)-PAGE of purified Mic60 constructs
[4] = target: Mic60solΔMitoΔLBS2 (Chaetomium thermophilum Mic60, residues 208–582) (Chaetomium thermophilum); assay: as above
[5] = target: Mic60sol (Chaetomium thermophilum Mic60, residues 208–691) (Chaetomium thermophilum); assay: as above
[6] = target: Mic60sol (Chaetomium thermophilum Mic60, residues 208–691) (Chaetomium thermophilum); assay: AUC; sedimentation velocity (40,000 r.p.m., 3.5 h) and sedimentation equilibrium (9,000 r.p.m.); 20 mM HEPES/NaOH pH 7.3, 150 mM NaCl, 7 °C; 0.02–2 mg ml^-1 Mic60sol

Substance: Mic60solΔMito (Chaetomium thermophilum Mic60, residues 208–608) (domain or fragment)
stoichiometry N [3]: 2

Substance: Mic60solΔMitoΔLBS2 (Chaetomium thermophilum Mic60, residues 208–582) (domain or fragment)
stoichiometry N [4]: 2

Continued, values first:

percent dimers [1]: 30% | stoichiometry N [1]: 2 | Kd [2]: 170 nM | stoichiometry N [2]: 0.73
Substance: full-length Mic19 (Chaetomium thermophilum) (natural protein)

stoichiometry N [5]: 2 | stoichiometry N [6]: 2
Substance: Mic60sol (Chaetomium thermophilum Mic60, residues 208–691) (domain or fragment)

Kd [2]: 3500 nM | stoichiometry N [2]: 1
Substance: C132S/C143S Mic19 mutant (Chaetomium thermophilum) (natural protein)

— paper PMC5460017
